B1: El-A10 (E1 derived anti-c-Met antibody) (antibody, V domains shown)
VH: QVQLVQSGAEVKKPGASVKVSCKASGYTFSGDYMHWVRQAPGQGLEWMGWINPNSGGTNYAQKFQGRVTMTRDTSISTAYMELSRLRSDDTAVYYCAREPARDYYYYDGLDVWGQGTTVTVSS
VL: QSVVTQPPSVSGAPGQRVTISCLGSASNIGAGHDVHWYQQLPGTAPKLLIYGNSNRPSGVPDRFSGSKSGTSASLAITGLQAEDEADYYCQSYSSSLSAYVFGTGTKVTVL
notes: The two labels are matched by their suffix only; Detected with anti-human IgG (gamma-chain specific); also called E1-A10; GCE-A10
B2: El-A14 (E1 derived anti-c-Met antibody) (antibody, V domains shown)
VH: QVQLVQSGAEVKKPGASVKVSCKASGYTFSGDYIHWVRQAPGQGLEWMGWINPNSGGTNYAQKFQGRVTMTRDTSISTAYMELSRLRSDDTAVYYCAREPARDYYYYDGLDVWGQGTTVTVSS
VL: B1 VL with L23I, A26S
notes: Label 'El-A14' matched to 'GCE-A14' by suffix only; Detected with anti-human IgG; also called E1-A14; GCE-A14
B3: El-BR1 (E1 derived anti-c-Met antibody) (antibody, V domains shown)
VH: B2 VH with Y27S, I34L
VL: B1 VL with H33Y, Y100V, V101L
notes: Label 'El-BR1' matched to 'GCE-BR1' by suffix only; Detected with anti-human IgG; also called E1-BR1; GCE-BR1
B4: El-B13 (E1 derived anti-c-Met antibody) (antibody, V domains shown)
VH: B2 VH with Y27S
VL: B1 VL with Y100V, V101L
notes: Label 'El-B13' matched to 'GCE-B13' by suffix only; Detected with anti-human IgG; also called E1-B13; GCE-B13
B5: El-A18 (E1 derived anti-c-Met antibody) (antibody, V domains shown)
VH: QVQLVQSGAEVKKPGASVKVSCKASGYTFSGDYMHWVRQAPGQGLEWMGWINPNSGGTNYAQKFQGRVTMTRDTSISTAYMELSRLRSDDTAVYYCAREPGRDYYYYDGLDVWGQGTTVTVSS
VL: B1 VL with L23I
notes: Label 'El-A18' matched to 'GCE-A18' by suffix only; Detected with anti-human IgG; also called E1-A18; GCE-A18
B6: El-A11 (E1 derived anti-c-Met antibody) (antibody, V domains shown)
VH: B2 VH with Y27F
VL: B1 VL with A26S, P57I, V101L
notes: Label 'El-A11' matched to 'GCE-A11' by suffix only; Detected with anti-human IgG; also called E1-A11; GCE-A11
B7: El-A13 (E1 derived anti-c-Met antibody) (antibody, V domains shown)
VH: B2 VH with I34L
VL: B1 VL
notes: Label 'El-A13' matched to 'GCE-A13' by suffix only; Detected with anti-human IgG; also called E1-A13; GCE-A13
B8: El-B19 (E1 derived anti-c-Met antibody) (antibody, V domains shown)
VH: B2 VH with Y27F, A101G
VL: B1 VL with Y100V, V101L
notes: Label 'El-B19' matched to 'GCE-B19' by suffix only; Detected with anti-human IgG; also called E1-B19; GCE-B19
B9: El-B11 (E1 derived anti-c-Met antibody) (antibody, V domains shown)
VH: B2 VH
VL: B1 VL with L23I, A26S, H33Y, P57I, Y100V, V101L
notes: Label 'El-B11' matched to 'GCE-B11' by suffix only; Detected with anti-human IgG; also called E1-B11; GCE-B11
B10: A1-24 anti-c-Met antibody (antibody, V domains shown)
VH: QVQLQESGPGLVKPSQTLSLTCTVSGGSISSGGYYWSWIRQHPGKGLEWIGESTHSGSTNYNPSLESRVTISVDTSKNQFSLKLSSVTAADTAVYYCARGRDSYDFDAWGQGTLVTVSS
VL: LPVLTQPASVSGSPGQSITISCTGTSFDVGGYNYVSWYQQHPGKAPKLMIYDVSDRPSGVSTRFSGSKSGNTASLTISGLQAEDEADYYCSSFRSSAALVVFGGGTKLTVL
notes: Detected with anti-human IgG (gamma-chain specific)
B11: A1-4 anti-c-Met antibody (antibody, V domains shown)
VH: B10 VH with T54S, E66K, S103G, D105Y
VL: B10 VL with F27S, N33P, D52V, F93Y, A97S, K107Q
notes: as for B10
B12: A1-32 anti-c-Met antibody (antibody, V domains shown)
VH: B10 VH with E66D, S103G, D105Y, F106L, A108Q
VL: B10 VL with N33P
notes: as for B10
B13: A1-9 anti-c-Met antibody (antibody, V domains shown)
VH: B10 VH with S53I, T54S, E66K, S103G, D105Y, F106L, A108Q
VL: B10 VL with F27S, D52N, A97S
notes: as for B10
B14: A1-2 anti-c-Met antibody (antibody, V domains shown)
VH: B10 VH with E66K, S103G
VL: B10 VL with A97S
notes: as for B10
B15: A1-6 anti-c-Met antibody (antibody, V domains shown)
VH: B10 VH with S53I, E66K, S103G, F106I
VL: B10 VL with F27W, N33P, F93Y, S96V, A97S
notes: as for B10

Numbering of substitutions follows the chain as printed.

The text below walks through data of patent publication US20190359719A1 (SORRENTO THERAPEUTICS, published 2019).

T1 sequence (P08581 25-1390): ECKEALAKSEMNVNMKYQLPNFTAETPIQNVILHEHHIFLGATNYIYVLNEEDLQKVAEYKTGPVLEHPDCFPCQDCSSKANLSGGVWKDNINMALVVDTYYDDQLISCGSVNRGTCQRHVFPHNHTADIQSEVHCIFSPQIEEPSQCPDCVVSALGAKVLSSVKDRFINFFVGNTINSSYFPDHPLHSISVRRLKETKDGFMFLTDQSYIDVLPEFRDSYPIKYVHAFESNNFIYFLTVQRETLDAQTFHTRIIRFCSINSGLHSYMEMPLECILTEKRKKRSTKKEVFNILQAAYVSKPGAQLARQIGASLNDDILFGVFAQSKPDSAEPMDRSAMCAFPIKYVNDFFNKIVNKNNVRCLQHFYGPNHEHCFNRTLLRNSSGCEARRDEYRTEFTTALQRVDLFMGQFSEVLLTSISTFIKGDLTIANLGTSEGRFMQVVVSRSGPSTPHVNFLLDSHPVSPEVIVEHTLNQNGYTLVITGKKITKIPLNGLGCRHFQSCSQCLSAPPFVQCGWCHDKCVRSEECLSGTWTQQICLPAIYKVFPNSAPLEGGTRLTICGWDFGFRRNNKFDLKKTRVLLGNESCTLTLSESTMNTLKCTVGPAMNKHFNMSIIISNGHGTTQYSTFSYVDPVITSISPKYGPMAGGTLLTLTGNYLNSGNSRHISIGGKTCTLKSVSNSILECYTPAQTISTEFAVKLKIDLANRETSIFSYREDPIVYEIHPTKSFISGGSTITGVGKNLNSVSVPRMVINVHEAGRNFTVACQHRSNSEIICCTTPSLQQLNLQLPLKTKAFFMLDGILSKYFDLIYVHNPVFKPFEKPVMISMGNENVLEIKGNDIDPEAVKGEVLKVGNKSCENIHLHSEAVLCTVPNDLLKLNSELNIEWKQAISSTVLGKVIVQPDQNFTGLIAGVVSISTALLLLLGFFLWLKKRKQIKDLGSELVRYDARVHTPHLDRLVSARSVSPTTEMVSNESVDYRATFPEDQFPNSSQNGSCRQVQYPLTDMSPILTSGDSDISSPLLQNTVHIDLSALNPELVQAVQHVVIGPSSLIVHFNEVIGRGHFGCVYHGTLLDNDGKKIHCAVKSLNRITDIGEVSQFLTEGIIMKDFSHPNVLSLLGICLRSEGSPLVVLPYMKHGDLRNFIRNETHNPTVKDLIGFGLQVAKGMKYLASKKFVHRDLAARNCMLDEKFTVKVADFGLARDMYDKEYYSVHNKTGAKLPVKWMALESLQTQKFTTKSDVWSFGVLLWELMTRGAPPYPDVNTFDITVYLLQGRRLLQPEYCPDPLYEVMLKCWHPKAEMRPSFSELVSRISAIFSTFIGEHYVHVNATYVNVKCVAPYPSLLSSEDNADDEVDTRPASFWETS

The first experiment concerns the target T1, c-Met (HGF receptor) expressed on cells (human, UniProt P08581 25-1390).
T1 construct: whole, on cells; Endogenous c-Met on tumour cell lines and on human umbilical vein endothelial cells
In words: flow cytometry, antibody titration on HUVEC cells, PE anti-human IgG. How it is done: (§1) This example illustrates in vitro data for anti-c-Met antibody cellular binding EC₅₀ measurements. […] In this example, DU-145 prostate cancer cells, SK-O-V3 ovarian cancer cells, or human umbilical vein endothelial cells (HUVEC) were aliquoted into the wells of a 96-well, v-bottom plate in FACS Buffer (PBS+2% FBS). A 16-point, 2 fold serial dilution curve of antibodies made in FACS Buffer was used to stain the cells. After 1 hr incubation, cells were washed 2× with FACS Buffer and resuspended in PE-conjugated, goat anti-human IgG (γ-chain specific) secondary antibody (Southern Biotech Cat #2040-09). Cells were further incubated for 0.5 hr and then washed 1× with FACS Buffer. Cells were resuspended in FACS Buffer and the median fluorescence intensity in the FL2-A channel was determined using the Intellicyt® HTFC flow cytometer. Data was collected and analyzed on the Intellicyt® HTFC flow cytometer using the ForeCyt® software. ND=Not Determined.
A general note: Flow cytometry measures light scatter and fluorescence of single cells or particles in a stream.
A word on the EC50: it is the concentration giving half of the maximal effect. Lower therefore signals greater potency. In turn, B1 displayed an EC50 of 0.148 nM. In other words, the sub-nanomolar range.

Molecule B2 displayed a 50% effective concentration (EC50) of 0.132 nM.

In turn, B3 gave a concentration giving a half-maximal response (EC50) of 0.376 nM. This EC50 is about 2.8-fold higher than that of the molecule before.

In the case of B4, the concentration for a half-maximal effect (EC50) was 0.19 nM.

Regarding B5, a half-maximal effect (EC50) was put at 0.606 nM.

The next experiment addresses T1, c-Met (HGF receptor) expressed on cells. In words: flow cytometry, antibody titration on DU-145 prostate cancer cells, PE anti-human IgG. How it is done: as §1
Turning to B1, the EC50 is 0.2 nM.

Turning to B6, the concentration for a half-maximal effect (EC50) was determined as 0.26 nM.

B7 gave an EC50 of 0.362 nM.

The molecule B2 registered an EC50 of 0.212 nM.

In turn, B3 yielded an EC50 of 3.36 nM.

As for B4, the concentration giving a half-maximal response (EC50) was found to be 0.251 nM. Against the preceding molecule, the EC50 is about 13-fold lower.

The molecule B8 returned an EC50 of 3.35 nM.

As for B9, the EC50 stood at 0.34 nM.

For the next experiment the target is unchanged. As to the kind of experiment: flow cytometry, antibody titration on SK-O-V3 ovarian cancer cells, PE anti-human IgG. The procedure: as §1
The molecule B1 had an EC50 of 0.153 nM.

As to B6, a half-maximal response (EC50) required 0.2 nM.

Molecule B7 returned an EC50 of 0.159 nM. The EC50 values of the last two molecules are within 1.5-fold of each other.

The molecule B2 returned an EC50 of 0.12 nM. This EC50 and that of the molecule before are within 1.5-fold of each other.

Regarding B3, the 50% effective concentration (EC50) was 0.467 nM.

B4 registered an EC50 of 0.191 nM.

For the molecule B5, the EC50 was found to be 1.15 nM.

As for B8, the EC50 is 0.852 nM. This EC50 and that of the molecule before are within 1.5-fold of each other.

Regarding B9, the EC50 came out at 0.41 nM.

Another experiment shares this target. As to the kind of experiment: flow cytometry, antibody titration on DU-145 prostate cancer cells, PE anti-human IgG. This is another data set of the same source. The procedure: as §1, with “cells or” for “cells,”, “cancer” for “cancer cells, or human umbilical vein endothelial”, “cells” for “cells (HUVEC)”, “Determined” for “Determined.”
Regarding B10, the concentration for a half-maximal effect (EC50) came to 0.003 nM.

B11 gave an EC50 of 0.017 nM. This EC50 lies about 5.7-fold higher than the previous one.

The molecule B12 registered an EC50 of 0.064 nM.

Take B13: the 50% effective concentration (EC50) is 0.058 nM. This EC50 and that of the molecule before are within 1.5-fold of each other.

For a further experiment the target is unchanged. In words: flow cytometry, antibody titration on SK-O-V3 ovarian cancer cells, PE anti-human IgG. The source holds these as a separate data set. The procedure: as §1, with “cells or” for “cells,”, “cancer” for “cancer cells, or human umbilical vein endothelial”, “cells” for “cells (HUVEC)”, “Determined” for “Determined.”
The molecule B14 registered an EC50 of 0.223 nM.

Consider B10, for which the EC50 worked out at 0.135 nM.

With B11, a half-maximal effect (EC50) was put at 0.054 nM.

Molecule B12 came in with an EC50 of 0.109 nM.

In turn, B13 returned a 50% effective concentration (EC50) of 0.076 nM.

As to B15, the EC50 was 0.053 nM.
